Experimental data as given in patent US20210388081A1 (Memorial Sloan Kettering, published 2021).

Experiments:
[1] = target: T1, FcRL1, overexpressed on 3T3 cells (UniProt Q96LA6 17-429, limits assumed); experiment: phage clone on 3T3-FcRL1 cells
T1 construct: whole, on cells
T1 sequence (looked up): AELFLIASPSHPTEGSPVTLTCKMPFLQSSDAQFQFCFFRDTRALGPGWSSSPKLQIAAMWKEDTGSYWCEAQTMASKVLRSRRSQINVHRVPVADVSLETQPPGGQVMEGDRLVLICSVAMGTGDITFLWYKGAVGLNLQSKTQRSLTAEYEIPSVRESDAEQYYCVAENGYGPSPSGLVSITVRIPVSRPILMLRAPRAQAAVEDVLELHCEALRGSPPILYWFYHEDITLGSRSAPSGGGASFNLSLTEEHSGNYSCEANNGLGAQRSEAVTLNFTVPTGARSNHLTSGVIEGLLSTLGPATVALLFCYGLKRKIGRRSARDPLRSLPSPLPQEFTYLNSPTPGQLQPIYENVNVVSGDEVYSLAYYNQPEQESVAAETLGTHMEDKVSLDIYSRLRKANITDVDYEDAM

[2] = target: T2, FcRL2, overexpressed on 3T3 cells (UniProt Q96LA5 20-508, limits assumed); experiment: phage clone on 3T3-FcRL2 cells
T2 construct: whole, on cells
T2 sequence (looked up): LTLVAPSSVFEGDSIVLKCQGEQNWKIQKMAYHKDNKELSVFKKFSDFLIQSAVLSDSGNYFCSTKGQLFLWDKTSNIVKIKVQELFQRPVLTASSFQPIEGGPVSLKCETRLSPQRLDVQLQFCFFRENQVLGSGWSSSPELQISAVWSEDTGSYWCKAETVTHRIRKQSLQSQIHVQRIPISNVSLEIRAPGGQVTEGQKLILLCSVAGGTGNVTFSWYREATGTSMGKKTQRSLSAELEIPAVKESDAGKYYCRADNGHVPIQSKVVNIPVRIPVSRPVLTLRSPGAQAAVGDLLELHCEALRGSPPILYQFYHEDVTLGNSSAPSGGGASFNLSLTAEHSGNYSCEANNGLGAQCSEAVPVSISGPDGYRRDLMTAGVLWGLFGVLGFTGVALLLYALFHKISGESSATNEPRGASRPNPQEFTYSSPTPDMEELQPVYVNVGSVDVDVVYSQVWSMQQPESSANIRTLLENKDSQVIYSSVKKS

[3] = target: T3, FcRL3, overexpressed on 3T3 cells (UniProt Q96P31 18-734, limits assumed); experiment: phage clone on 3T3-FcRL3 cells
T3 construct: whole, on cells
T3 sequence (looked up): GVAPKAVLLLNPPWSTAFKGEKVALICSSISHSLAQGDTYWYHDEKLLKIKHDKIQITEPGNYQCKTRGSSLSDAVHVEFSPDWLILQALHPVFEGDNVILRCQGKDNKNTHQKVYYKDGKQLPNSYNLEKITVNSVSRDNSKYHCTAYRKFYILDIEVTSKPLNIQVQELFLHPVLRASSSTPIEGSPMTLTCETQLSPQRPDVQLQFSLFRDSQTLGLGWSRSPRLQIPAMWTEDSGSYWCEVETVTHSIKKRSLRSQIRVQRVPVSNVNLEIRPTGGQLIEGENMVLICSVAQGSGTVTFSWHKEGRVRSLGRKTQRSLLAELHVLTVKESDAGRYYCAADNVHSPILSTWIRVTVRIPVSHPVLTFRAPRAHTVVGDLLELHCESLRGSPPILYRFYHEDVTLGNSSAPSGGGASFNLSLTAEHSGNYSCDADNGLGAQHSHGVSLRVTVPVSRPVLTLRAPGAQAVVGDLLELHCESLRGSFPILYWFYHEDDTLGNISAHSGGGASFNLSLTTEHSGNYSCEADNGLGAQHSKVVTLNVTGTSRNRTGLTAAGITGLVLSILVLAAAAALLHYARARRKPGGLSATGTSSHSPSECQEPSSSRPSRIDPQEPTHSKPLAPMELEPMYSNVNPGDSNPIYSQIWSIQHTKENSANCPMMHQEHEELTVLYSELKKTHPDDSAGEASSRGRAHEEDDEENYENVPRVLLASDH

[4] = target: T4, Fc Receptor-like 5 (FcRL5), full length, overexpressed on 3T3 or Raji cells (human, UniProt Q96RD9 16-977); experiment: phage clone screening on cells
T4 construct: also called 3T3-FcRL5
T4 sequence: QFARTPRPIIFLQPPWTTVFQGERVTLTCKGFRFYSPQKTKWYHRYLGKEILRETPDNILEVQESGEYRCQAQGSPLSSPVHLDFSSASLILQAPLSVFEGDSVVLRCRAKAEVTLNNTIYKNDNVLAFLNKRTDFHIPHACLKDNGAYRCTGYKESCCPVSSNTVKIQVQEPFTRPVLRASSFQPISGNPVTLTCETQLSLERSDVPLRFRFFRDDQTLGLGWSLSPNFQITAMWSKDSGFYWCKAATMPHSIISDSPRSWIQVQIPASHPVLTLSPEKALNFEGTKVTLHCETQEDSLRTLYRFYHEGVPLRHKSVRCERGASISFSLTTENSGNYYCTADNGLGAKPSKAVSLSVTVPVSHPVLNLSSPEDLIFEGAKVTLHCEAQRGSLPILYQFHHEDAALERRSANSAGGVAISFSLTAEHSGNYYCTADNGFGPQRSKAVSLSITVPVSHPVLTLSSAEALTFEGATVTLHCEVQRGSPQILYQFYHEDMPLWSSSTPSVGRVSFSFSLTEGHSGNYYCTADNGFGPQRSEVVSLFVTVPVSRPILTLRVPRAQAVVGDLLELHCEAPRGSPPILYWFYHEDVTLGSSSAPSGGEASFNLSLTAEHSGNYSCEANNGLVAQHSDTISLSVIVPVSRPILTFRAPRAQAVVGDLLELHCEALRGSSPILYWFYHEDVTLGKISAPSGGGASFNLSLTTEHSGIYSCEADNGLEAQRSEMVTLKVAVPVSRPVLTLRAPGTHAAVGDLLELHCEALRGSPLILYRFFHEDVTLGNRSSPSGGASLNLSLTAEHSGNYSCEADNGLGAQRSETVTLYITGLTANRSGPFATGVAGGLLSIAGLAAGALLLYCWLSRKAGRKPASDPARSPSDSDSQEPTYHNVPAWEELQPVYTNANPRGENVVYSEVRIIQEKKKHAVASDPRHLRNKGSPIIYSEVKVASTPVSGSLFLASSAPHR
Outline: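 Cell-surface binding was read by flow cytometry using anti-M13 coat protein mAb and PE-labelled anti-mouse Ig. Selected scFv phage were screened on FcRL5-overexpressing 3T3 cells, with 3T3 lines bearing FcRL1, 2, 3, 4 or 6 as negative controls.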

B1: ET200-113 (scFv)
scFv: QSVVTQPPSVSAAPGQKVTISCSGSSSNIGNNYVSWYQQLPGTAPKLLIYDNNKRPSGIPDRFSGSKSGTSATLGITGLQTGDEADYYCGTWDSSLSAAYVFGTGTKVTVLGSRGGGGSGGGGSGGGGSLEMAQVQLVQSGAEVKKPGASVKVSCKASGYSFTSYTISWVRQAPGQGLEWMGWVSTYNGLRNYAQNLQGRVTMTTDTLTTTAYMELRSLRSDDTAVYYCVREGSPDYGDFAAFDYWGQGTLVTVSSTSGQAGQHHHHHHGAYPYDVPDYAS
notes: screened as phage clone; entry is VL-linker-VH-His tag-HA tag
binding result [1]: no binding
binding result [2]: no binding
binding result [3]: no binding
binding result [4]: binds

B2: ET200-121 (scFv)
scFv: QSVLTQPPSVSGAPGQRVTVSCTGSRSNIGAGYDVHWYQQLPGTAPKLLIYGNSNRPPGVPDRFSGSKSGTSASLVITGLQAEDAADYYCQSYDNTVRESPYVFGTGTKVTVLGSRGGGGSGGGGSGGGGSLEMAEVQLVQSGAEVKKPGASVKVSCKVSGYTLTELSMHWVRQAPGKGLEWMGGFDPEDGETIYAQKFQGRVTMTEDTSTDTAYMELSSLRSEDTAVYYCATESNLVSRHYYYYGMDVWGQGTTVTVSSTSGQAGQHHHHHHGAYPYDVPDYAS
notes: as for B1
binding result [1]: no binding
binding result [2]: no binding
binding result [3]: no binding
binding result [4]: binds

B3: ET200-123 (scFv)
scFv: QAVLTQPPSASGTPGQRVTISCSGSSSNIGSNTVNWYQQLPGTAPKLLMYNNDQRPSGVPDRFSGSKSGTSASLAISGLQSEDEADYYCAAWDDSLNGYVFGPGTKVTVLGSRGGGGSGGGGSGGGGSLEMAQVQLVESGAEVKKPGASVKVSCKASGYTFTSYGISWVRQAPGQGLEWMGWISAYNGNTNYAQKLQGRVTMTTDTSTSTAYMELRSLRSDDTAVYYCARDLSRGANPHYYYYYGMDVWGQGTTVTVSSTSGQAGQHHHHHHGAYPYDVPDYAS
notes: as for B1
binding result [1]: no binding
binding result [2]: no binding
binding result [3]: no binding
binding result [4]: binds

B4: ET200-125 (scFv)
scFv: NFMLTQPHAVSESPGKTVTISCTRSSGSIASNYVQWYQQRPGSSPRTVIYEDNQRPSGVPGRFSGSIDSSSNSASLTISGLKTEDEADYYCQSYDSTSVLFGGGTKLTVLGSRGGGGSGGGGSGGGGSLEMAEVQLVQSGAEVKKPGSSVKVSCKASGGTFSSNSLSWVRQAPGQGLEWMGRIFPILGITNYAQKFQGRVTITADKSTSTAYMELSSLRSEDTAVYYCARGNYQWYDAFDIWGQGTMVTVSSTSGQAGQHHHHHHGAYPYDVPDYAS
notes: as for B1
binding result [1]: no binding
binding result [2]: no binding
binding result [3]: no binding
binding result [4]: binds

B5: ET200-115 (scFv)
scFv: QSVLTQPPSVSGAPGQRVTISCTGSSSNIGARYDVHWYQQLPGTAPRLLISANYDRPSGVPDRFSGSKSGTSASLAITGLQAEDEADYYCQSYDSSVSAWVFGGGTKVTVLGSRGGGGSGGGGSGGGGSLEMAEVQLVQSGAEVKEPGASVRISCQASGYNFISYYMHWVRQAPGQGLEWMGTINPGSGETDYSQKLQGRVTMTRDPSTGTFDMGLSSLTSGDTAVYYCATGLIRGASDAFNIWGRGTMVTVSSTSGQAGQHHHHHHGAYPYDVPDYAS
notes: as for B1
binding result [1]: no binding
binding result [2]: no binding
binding result [3]: no binding
binding result [4]: binds

B6: ET200-008 (scFv)
scFv: QSALTQPASVSGSPGQSITISCTGTSSDVGGYNYVSWYQQHPGKAPKLMIYDVSNRPSGVSNRFSGSKSGNTASLTISGLQAEDEADYYCSSYTSSSTSKVFGGGTKLTVLGSRGGGGSGGGGSGGGGSLEMAEVQLVESGGGVVRPGGSLRLSCAASGFTFGDYGMSWVRQAPGKGLEWVSGINWNGGSTGYADSVKGRFTISRDNAKNSLYLQMNSLRAEDTAVYYCARSKYNFHVYYDYWGQGTLVTVSSTSGQAGQHHHHHHGAYPYDVPDYAS
notes: as for B1
binding result [1]: no binding
binding result [2]: no binding
binding result [3]: no binding
binding result [4]: binds

B7: ET200-118 (scFv)
scFv: QAVLTQPASVSGSPGQSITISCTGTSSDVGGYNYVSWYQQHPGKAPKLMIYEVSNRPSGVSNRFSGSKSGNTASLTISGLQAEDEADYYCSSYTSSSTPYVFGAGTKVTVLGSRGGGGSGGGGSGGGGSLEMAEVQLVESGGGLVQPGRSLRLSCAASGFTFDDYAMHWVRQAPGKGLEWVSGISWNSGSIGYADSVKGRFTISRDNAKNSLYLQMNSLRAEDTALYYCAKARWTAVASDHHFDYWGQGTLVTVSSTSGQAGQHHHHHHGAYPYDVPDYAS
notes: as for B1
binding result [1]: no binding
binding result [2]: no binding
binding result [3]: no binding
binding result [4]: binds

B8: ET200-116 (scFv)
scFv: QPVLTQPPSVSVSPGQTAAIPCSGDKLGDKFASWYQQKPGQSPVLVIYQDTKRPSGIPERFSGSNSGNTATLTISGTQAMDEADYYCQTWASGIVVFGGGTKLTVLGSRGGGGSGGGGSGGGGSLEMAQVQLQQSGPGLVKPSQTLSLTCAISGDSVSSNSAAWNWIRQSPSRGLEWLGRTYYRSKWYNDYAVSVKSRITINPDTSKNQFSLQLNSVTPEDTAVYYCARERSGWKGFDYWGQGTLVTVSSTSGQAGQHHHHHHGAYPYDVPDYAS
notes: as for B1
binding result [1]: no binding
binding result [2]: no binding
binding result [3]: no binding
binding result [4]: binds
